Test results reported in publication PMC12155224, “Rare missense variants of the leukocyte common antigen related receptor (LAR) display reduced activity in transcellular adhesion and synapse formation” (Research Square, 2025).

T1: NGL-3 ECD (extracellular domain of Netrin-G ligand 3, Fc cleaved off) (UniProt Q9NT99 36-576)
T1 construct: after cleavage LEVLFQ should remain at the C-terminus (surmised); source: ExpiCHO-S, purified (Protein A, Fc cleaved off with 3C protease, SEC); not shown: Fc, C-terminal, cleaved
T1 sequence (looked up): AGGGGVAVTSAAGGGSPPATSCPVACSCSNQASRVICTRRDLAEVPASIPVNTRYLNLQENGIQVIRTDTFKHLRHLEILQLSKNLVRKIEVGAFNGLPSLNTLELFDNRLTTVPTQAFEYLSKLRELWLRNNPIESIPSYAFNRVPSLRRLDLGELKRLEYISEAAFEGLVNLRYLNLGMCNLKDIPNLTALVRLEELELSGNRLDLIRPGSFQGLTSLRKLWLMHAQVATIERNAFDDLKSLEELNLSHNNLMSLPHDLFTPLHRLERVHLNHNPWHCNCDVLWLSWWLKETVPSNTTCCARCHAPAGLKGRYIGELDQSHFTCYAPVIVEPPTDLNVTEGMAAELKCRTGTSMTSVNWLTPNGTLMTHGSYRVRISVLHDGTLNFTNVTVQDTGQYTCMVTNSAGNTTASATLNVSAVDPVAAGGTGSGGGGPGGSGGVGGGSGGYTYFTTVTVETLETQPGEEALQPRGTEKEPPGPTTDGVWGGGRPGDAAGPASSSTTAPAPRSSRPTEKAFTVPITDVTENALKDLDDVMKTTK


Key:
[1] = target: LAR P381L, full length (human) (UniProt P10586)
[2] = target: LAR P417L, full length (human) (UniProt P10586)
[3] = target: LAR V389M, full length (human) (UniProt P10586)
[4] = target: T1, NGL-3 ECD (extracellular domain of …); assay: MST; His-tagged LAR FN1–4 labelled with RED-tris-NTA, 100 nM; NGL-3 in 1:1 dilution series; 25 mM HEPES pH 7.5, 150 mM NaCl, 0.005 % Tween20; 1 h at RT; Monolith NT.115, medium MST power; MST on time 2.5 s; 1:1 KD model; conditions: both partners purified

cell aggregation index: HEK293T cells with LAR variant + mCherry mixed with HEK293T cells with NGL-3 (NGL-3-CFP, whole on cells, not the Fc fusion) + GFP; decrease against WT LAR [1] | cell aggregation index: HEK293T cells with LAR variant + mCherry mixed with HEK293T cells with NGL-3 (NGL-3-CFP, whole on cells, not the Fc fusion) + GFP; decrease against WT LAR [2] | cell aggregation index: HEK293T cells with LAR variant + mCherry mixed with HEK293T cells with NGL-3 (NGL-3-CFP, whole on cells, not the Fc fusion) + GFP; decrease against WT LAR [3] | Kd [4] | Molecule
> 50 % decrease | > 50 % decrease | > 50 % decrease | – | NGL-3-Fc (soluble fusion of the NGL-3 extracellular domain with Fc) (from UniProt Q9NT99 36-576)
– | – | – | 3.68 µM | LAR FN1–4 WT (recombinant fibronectin III domains 1–4 of human LAR) (domain or fragment, RED-tris-NTA 2nd generation dye on the His tag, leukocyte common antigen related receptor (LAR, PTPRF), human, FN1–4 domains; TEV cleavage site between the His tag and the domains; also called WT LAR FN1–4; LAR FN1–4 domain; source: E. coli BL21(DE3), purified (HisTrap HP or Talon beads, SEC); not shown: His6, N-terminal, kept) PKPPIDLVVTETTATSVTLTWDSGNSEPVTYYGIQYRAAGTEGPFQEVDGVATTRYSIGGLSPFSEYAFRVLAVNSIGRGPPSEAVRARTGEQAPSSPPRRVQARMLSASTMLVQWEPPEEPNGLVRGYRVYYTPDSRRPPNAWHKHNTDAGLLTTVGSLLPGITYSLRVLAFTAVGDGPPSPTIQVKTQQGVPAQPADFQAEVESDTRIQLSWLLPPQERIIMYELVYWAAEDEDQQHKVTFDPTSSYTLEDLKPDTLYRFQLAARSDMGVGVFTPTIEARTAQSTPSAPPQKVMCVSMGSTTVRVSWVPPPADSRNGVITQYSVAYEAVDGEDRGRHVVDGISREHSSWDLVGLEKWTEYRVWVRAHTDVGPGPESSPVLVRTDED
